Assay results taken from a protein production outcome set (Wang et al. 2014).

Assay: label from the status in PepcDB records
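Note: failed if final PepcDB status was selected cloned or expressed and not failed if soluble or beyond.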

| Sequence | protein production |
| --- | --- |
| MMGDSVIYYVEQADEPVNRADERARKTFKYFWRELFWERRRIISALDFAMVKVPFFQDGEDGEICEHMWIDDIYFDGLYIYGVLNNEPGELTNVEQGESVCVPVDDISDWMFVCNGIPYGGFTIQAMRGQMTEEERTEHDAAWGIDFGDPGQILLVYEEKEHPENLEEHPMCRNCIDDFRQQLSQNSDYLREQDEDGYTPLHHEAIAGNALMVQAMLEYGANPASTTSEGYTALDFACLTGWQNVADLLEPRH | failed |
| MPWLLPREIAPLHQKALDRYLGSLTERLSDPNVDRNALVREELARLLYGRPYEELLEANPLAAMGLDPEGITFEAEYYAATDLEKFRRVKPLLWFWKVLDLTPLGQSVHSGVAIRRALAPFIFKRVGKNPKFFQNVEFSVGYNLELGDDVVVHRYVFLDDIGGIKIGDRTSLSDYVNVYSHTHHVLASPDVTLKETIIGSGVRITYHATVLAGVRIGDDAMVGTGAVVTKDIPPHAIALGIPARPVRYKVRHDCPYCRKGEPHPSDLVPKLPDRKGNPDYPDFLPPGFGTREAGS | failed |
| MAEKSCSLTEFVGTAIGDTLGLVIANVDTALLDAMKLEKRYRSIGILGARTGAGPHIMAADEAVKATNTEVVSIELPRDTKGGAGHGSLIILGGNDVSDVKRGIEVALKELDRTFGDVYGNEAGHIELQYTARASYALEKAFGAPIGRACGIIVGAPASVGVLMADTALKSANVEVVAYSSPAHGTSFSNEAILVISGDSGAVRQAVTSAREIGKTVLATLGSEPKNDRPSYI | not failed |
| MTKIACVIVTYNRKQLLEEALNSVLIQTESPEYVFVIDNASTDGTEKYINDKFNFDNRQWHYVRCSQNLGGSAGFAQGMRLALQTDCSWISISDDDAIFEPGYFAALRKGIKQYPEQSVFSGSVLLPDGKHDMMHREVITNSATLTVRCVTDETYKHDFSYDIFSFVGILLSRQVIEAIGLPEQDYFIRFDDFEYAVRALKFGRFMNLSALEHHHHHH | failed |
| MKRILVSLYEKEKYLDILRELHEKGWEIWASSGTAKFLKSNGIEANDVSTITGFENLLGGLVKTLHPEIFAGILGPEPRWDVVFVDLYPPPDIDIGGVALLRAAAKNWKKVKPAFDMETLKLAIEIDDEETRKYLAGMTFAFTSVYDSIRANQFVEGISLAFKREDLQLRYGENPHEKAFVYGKPAFEILHEGKTISFNNILDAENAWFMAKNLPRMGAVVVKHQSPCGAAIGEDKVEIVKKAIEADDESSFGGILAVNFEMDEEVAKSLKKYLEVIVAPSFTQEAIEVLSKKKVRLLKPGDYASWAGKMAFGSLVLSERKYPEGNFELVVGEPLSEKELEDLEFAYRVVEGAKSNAVLIAKDGVTVGIGSGQPSRKRAAWIATVMAGEKAKGAVAASDAFFPFPDSLEILAQAGVKAVVAPLGSIRDEEVIEKARELGITFYKAPSRVFRH | not failed |
| METESEQNSNSTNGSSSSGGSSRPQIAQMSLYERQAVQALQALQRQPNAAQYFHQFMLQQQLSNAQLHSLAAVQQATIAASRQASSPNTSTTQQQTTTTQASINLATTSAAQLISRSQSVSSPSATTLTQSVLLGNTTSPPLNQSQAQMYLRPQLGNLLQVNRTLGRNVPLASQLILMPNGAVAAVQQEVPSAQSPGVHADADQVQNLAVRNQQASAQGPQMQGSTQKAIPPGASPVSSLSQASSQALAVAQASSGATNQSLNLSQAGGGSGNSIPGSMGPGGGGQAHGGLGQLPSSGMGGGSCPRKGTGVVQPLPAAQTVTVSQGSQTEAESAAAKKAEADGSGQQNVGMNLTRTATPAPSQTLISSATYTQIQPHSLIQQQQQIHLQQKQVVIQQQIAIHHQQQFQHRQSQLLHTATHLQLAQQQQQQQQQQQQQQQPQATTLTAPQPPQVPPTQQVPPSQSQQQAQTLVVQPMLQSSPLSLPPDAAPKPPIPIQSKPPVAPIKPPQLGAAKMSAAQQPPPHIPVQVVGTRQPGTAQAQALGLAQLAAAVPTSRGMPGTVQSGQAHLASSPPSSQAPGALQECPPTLAPGMTLAPVQGTAHVVKGGATTSSPVVAQVPAAFYMQSVHLPGKPQTLAVKRKADSEEERDDVSTLGSMLPAKASPVAESPKVMDEKSSLGEKAESVANVNANTPSSELVALTPAPSVPPPTLAMVSRQMGDSKPPQAIVKPQILTHIIEGFVIQEGAEPFPVGCSQLLKESEKPLQTGLPTGLTENQSGGPLGVDSPSAELDKKANLLKCEYCGKYAPAEQFRGSKRFCSMTCAKRYNVSCSHQFRLKRKKMKEFQEANYARVRRRGPRRSSSDIARAKIQGKCHRGQEDSSRGSDNSSYDEALSPTSPGPLSVRAGHGERDLGNPNTAPPTPELHGINPVFLSSNPSRWSVEEVYEFIASLQGCQEIAEEFRSQEIDGQALLLLKEEHLMSAMNIKLGPALKICAKINVLKET | failed |
| MNFLNENEKKITLIPPPEFVQYVGGHFEEVGKEFMQYFIEIGNLKSNETVLDVGCGIGRMAVPLMNYLSDDGTYYGFDLFNKGITWCKNNISTRRNNFHFEHVDIYNQFYNPDGKEDASQYKFPYEDESFDFIFLTSVFTHLLPKELEHYVREIARVLKKDGRCFITFFLINPESSYYLNAGLSPLGFYHQIDNCYVLNKDIPNFAVAYPEEDIRTLLNKYGLEMQTPPHYGSWCGRTEHTSYQDIILAQKISER | failed |
| AEGRGKARADSLKAGSQGLSANKRRADGSFESVVASSLRKGDVVRVQAGEMIPGDGEVIEGVAAVNEAAITGESAPVIRESGGDRSAVTGNTQVVSDWLLVRIGANPGESTLDRMIALVEGAKRQKTPNEV | failed |
| MPLEASELKPTAGPLEASELKPTAGPLEASELKPTAGPLEASELKPTAGPLEASELKPTAGPLEASELKPTAGPLEASELKPTAGMEKTKKIAVMSGKGGVGKTTVAVNLAVALAAEGYQVGLLDLDLHGPNVQRMLGVSLPPSEGEKIVPAKYGDSLKVFSLAMILQEGAPVIWRGPLKHKAIEQLTRDVEWGDLDYLICDLPPGTGDEALSTFQIIKPDAVIVVSTPQKVAGDDVRRAINFVKRLSGKILGLVENMSYLVCPNCGEKIYVFGKGETEKLAEEFGIPLIARIPMDPEVVSLSDEGRPAVVYKRGTVIEEEFKKIVEKVLSLLEHHHHHH | failed |
| MFRQSKRRIASRKNFSSYDDIVKSELDVGNTNAANQIILSSSSSEEEKKLYARLYESKLSFYDLPPQGEITLEQFEIWAIDRLKILLEIESCLSRNKSIKEIETIIKPQFQKLLPFNTESLEDRKKDYYSHFILRLCFCRSKELREKFVRAETFLFKIRFNMLTSTDQTKFVQSLDLPLLQFISNEEKAELSHQLYQTVSASLQFQLNLNEEHQRKQYFQQEKFIKLPFENVIELVGNRLVFLKDGYAYLPQFQQLNLLSNEFASKLNQELIKTYQYLPRLNEDDRLLPILNHLSSGYTIADFNQQKANQFSENVDDEINAQSVWSEEISSNYPLCIKNLMEGLKKNHHLRYYGRQQLSLFLKGIGLSADEALKFWSEAFTRNGNMTMEKFNKEYRYSFRHNYGLEGNRINYKPWDCHTILSKPRPGRGDYHGCPFRDWSHERLSAELRSMKLTQAQIISVLDSCQKGEYTIACTKVFEMTHNSASADLEIGEQTHIAHPNLYFERSRQLQKKQQKLEKEKLFNNGNH | failed |
| SSTFSASDFNSERYSSSRPSYPSDFYKMIDEYHDGERKLLVDVGCGPGTATLQMAQELKPFEQIIGSDLSATMIKTAEVIKEGSPDTYKNVSFKISSSDDFKFLGADSVDKQKIDMITAVECAHWFDFEKFQRSAYANLRKDGTIAIWGYADPIFPDYPEFDDLMIEVPYGKQGLGPYWEQPGRSRLRNMLKDSHLDPELFHDIQVSYFCAEDVRDKVKLHQHTKKPLLIRKQVTLVEFADYVRTWSAYHQWKQDPKNKDKEDVADWFIKESLRRRPELSTNTKIEVVWNTFYKLGKRV | not failed |
| MEKPDIQRLTNFLIVYTKTLLGAGTYTARVAKCVGRIAEVYGYEININFFFHHITLNVVDMDDNSIQRTYVIPNHHAHVNFKLIFDLSALSWAIYDHKYDLEKAKVVFEQISQQKKHSYLLNLLFVSMANSAFCRLFGGDFGAGNLVFFATFVGLLLRYILTKAKIDLRIQYILCSFISSWFVFFGLDMGYTNTSDVALGSSILYLIPGVFFINSVIDILKDHILMGLSRIISVAILICCIALGIYMTLSISDFGILR | failed |
| MTISNGDVKSETCNNGSSEKKPFRIFVGYDPREDLAYQVCHHSITKRSSIPVEITPIIQSDLRKKGLYWRERGQLESTEFSFSRFLTPHLSDYQGWAMFVDCDFLYLADIKELTDLIDDKYAIMCVQHDYTPKETTKMDGAVQTVYPRKNWSSMVLYNCGHPKNKTLSPEIVNTQTGAFLHRFQWLEDEEIGSIPFVWNFLEGHNRVVEKDPTTQPKAVHYTRGGPWFDAWKDCEFADLWLNEMEEYNKENKKEADNAK | failed |
| SWKQAVRPCLRLPNFRFDWTSFNVLSAQKRWVKSFSTAVSIKEDPFWSAPLKKVLENHPETQYAYPDSTTVLECARGLVRDDLSSVLVFENVQDKLRWIGIFSERDIVRKVASQGLPLEKTQLKKAYTTRDRVETITVDKTVQDVVDILVSKDVQNIAVLYQKKHGDAFREDCYGVLTSRDLSTFFLSIPENDRSFFEQQTVKDVLESKGLDRSGDNTVYQIHQSVSVDEAIQKMDDHKVGTLLVTQSGK | failed |
| ARFYSDGLKLAGTLFVPDDYEPGQKRPAVLICHGRFAIKEWVPSRWTPHFLAAGYVCMVFDYRNLGESEGTPGRIIPDEEVRDARHALTYLQCQPEVDPARIGALGWGLGGGVAVSAAAHDARIKAVVCAIGVANGGRYGRVGMSDAAWAARQEQIAADRRERVLTGRSARLPRTEILGRPDAQRAERHERQNWIDSLVAAVGPERAADPAKLGIPDEITLESMEALYDFAPDAVVDRIAPRPLLIVHARDDHEFPFEHAADMYERAAQPKQLIAVEDAGHLDWIDPAHPSQQVYVPQVVAWMQAQL | not failed |
| MRCTRLEARRMLSHINENQQPQMVDISEKAVSDRRAVAEALIELPPVFQAYVQGGDLFLKKGPVVQTAIIAGTMAVKRTAEVIPFCHPLPITSCRFETDIESQESGLRIRLRCEVKTCDRTGVEMESLHGVAIAALTIYDMAKALSPHIVIREVRLLAKSGGKKTLGQYPLYGLVLTGGQSQRMGQAKALLDYYGEPHAQYLYNLLAQSCEQVFLSAQPNQWQGTPLADLPTLPDILPQIGPIAGILTALRAYPQVNWLVVACDLPYLTTETLAPLLHHYREDVVATCYHHPQEGFPEPLCAIYTPQALPVFEAAYAEGIYCPVKILQRSPCQRIAPPQPTITANINTPEEYHEALHHVRRP | failed |
| TSSLHPTRGKLLKRFAQIGPYIREQQCQESQFFFDCLAVCVNKKVTPEKREFWGWWMELERNGEQLIYYYQVGLFDKNGDWVNQVISKKDVIESIHETLIRFHDFLQAAVSELEMTLVPDEKMSNFPLPL | not failed |
| MGHHHHHHSHMPRGPAGEAGASPPVRRVRVVKQEAGGLGISIKGGRENRMPILISKIFPGLAADQSRALRLGDAILSVNGTDLRQATHDQAVQALKRAGKEVLLEVKFIREVT | failed |
| MERELGPWRLTFRVRGWLSDEVFGEISRYARYLGRDRGYGLFRIDPERLRGNGLTLWDAIASLEDLGVAVEEDLEALKRAAEEALRVVLELRGGWVYISSRVMLKPILEEEGLSLPYDREARAYRAPPIMYPRLREAFERRGLKVEDRVFPPSSRSLPRPVRFTGELRDYQEEALEAWRKAGGRGVIVLPTGAGKTVVAIAAVAWAGVWSLIVVYTRDHVRQWIDAFRRFTDAHSLVGAYYGEEKRLAPITVTTYQTAYRHIDRLAPLFPFLVFDEAHHIPADKFKRIASASPAPYRMGLSATIEREDGRHEEVYSLVGGVVYSSSPGELTRKGYLAPFVIRRVKVELEEEEKRLYEDLKRKYRILARGRSFEKILEDARRGDPTAIEAIRVNTRMKEIVQLSESKIRAVEKLVREELSRGSKVIVFTQYRRQAEEIARRTGALLLHGGLERRVREATLAKFRALKAGALVVTTVGDEGLDIPDANVGILVSGTGSRRQFIQRLGRLLRPGEGKRAVLYEVIARGTGEELQSRRRRGRG | failed |
